Values belong to the molecule of their own block, whether it stands above or below them.
Tests used:
Test in all cases: single-molecule pull-down (SiMPull, TIRF microscopy); whole worm lysate of the triple-tagged strain; biotinylated antibody against the tag of one subunit (anti-OLLAS, anti-FLAG or anti-MYC) tethered to the neutravidin surface captures complexes; Cy3- and Cy5-labelled antibodies against the tags detect the subunits; track counts after wash, summed over fields of view; controls: Pre-Ab and untagged wild-type lysate
MYC::RPA-4 (C. elegans) = target: MYC::RPA-4 (C. elegans)
[1] = target: OLLAS::RPA-1 (C. elegans) (UniProt Q19537)
[2] = target: 3XFLAG::RPA-2 (C. elegans) (UniProt Q95Y97)
[3] = target: the molecule itself

pulldown counts (MYC::RPA-4 (C. elegans)): 2300 counts
pulldown counts [1]: 1810 counts
pulldown counts [2]: 206 counts
Molecule: MYC::RPA-4 (natural protein)

B1: 3XFLAG::RPA-2 (natural protein, C. elegans, UniProt Q95Y97 1-288, looked up)
chain: MWNETVEHENAGNGWAAGESSFMTDRKPDSKATTLGERLPVPVTISNLIEHFSAQDDKYVVGTFRFATVLTVGIVKDISQDGTTYTYDLCDPNNTEMEYRTLKYDNEGSTFDHSSIVEGTRVRAIGKLKGFDGNNTIMLFNITPVEDDKDFTIFELEAEAARLFFQKNVSEKLKSVDSDGFQGMLAPPKSRMSQTSHQSSQGSDTKERLYAQPQKVMTGANQGDVLRERITAVLMAVPEGSRDEGRHVSWIAEQIQETNISIVRKCVGEMVENGLVYTTVDEETVSAI
notes: also called 3XFLAG-tagged RPA-2; source: endogenous locus tagged by CRISPR/Cas9, C. elegans whole worm lysate; not shown: 3xFLAG, N-terminal, kept
pulldown counts [3]: 724 counts

pulldown counts (MYC::RPA-4 (C. elegans)): 100 counts
B2: OLLAS::RPA-1 (natural protein, C. elegans, UniProt Q19537 1-655, looked up)
chain: MAAIHINHDVFNKYHTNGKLRLTTGYVQEAIENNGYPGHDGIVQVLKGKVEQGEQLGHAFTFRIRISDGVFQYNALMSADIDDQIKREVEHLVEGTIIALTKFEIYDQGEGAKNCFLIKGYKILSRYHQVLTSPEVKPRSHSGKPDEHKGYRPNIIIEDVWPEAEGMAADYQENMANPPAAKAPKREFGEEASYNRAAAPEATRARAVPPPARRTASNTERGVMPIAMVTPYVSNFKIHGMVSRKEEIRTFPAKNTKVFNFEITDSNGDTIRCTAFNEVAESLYTTITENLSYYLSGGSVKQANKKFNNTGHDYEITLRSDSIIEAGGELLAAPKLILKRVKLGEIAGYAGQLIDVLVVVEKMDPEATEFTSKAGKSLIKREMELIDESGALVRLTLWGDEATKALVDDYVQKVIAFKGVIPREFNGGFSLGTGSATRIISVPEIAGVSELYDWYANVKPTTEVKMMSQAAGGSNEAPRTIAGLQEMQFGKDSDKGDYATVKAMITRVNPTNALYRGCASEGCQKKLVGENGDYRCEKCNKNMNKFKWLYMMQFELSDETGQVYVTAFGDSAAKIVGKSAAELGELHDESPDEYNAIFERLQFVPKMWRLRCKMDSYNEEVRQKMTVYGVDDVNQDKYIENLKQMIEQMQQMSDY
notes: also called OLLAS-tagged RPA-1; CeRPA large subunit; source: endogenous locus tagged by CRISPR/Cas9, C. elegans whole worm lysate; not shown: OLLAS, N-terminal, kept
pulldown counts [3]: 1060 counts
